Laboratory results: the Human Domainome abundance scans (Beltran et al. 2025)

B1: COUP transcription factor 1, residues 83 to 159; numbered along this chain, P10589 (parent)
chain: HIECVVCGDKSSGKHYGQFTCEGCKSFFKRSVRRNLTYTCRANRNCPIDQHHRNQCQYCRLKKCLKVGMRREAVQRG

Variants of: B1
Test: abundance fitness (aPCA) (normalised: wild type 0, dead -1); higher = more abundant; growth selection in yeast, the domain comes from the species named
Conditions: Homo sapiens

Abundance fitness, by site and new letter:
K63: Y -0.277 | D -0.874 | E -0.161 | I -0.402 | S -0.464 | H -0.114 | G -0.526 | F -0.372 | L -0.337 | W -0.391 | A -0.254 | R -0.094 | M -0.048 | V -0.249 | T -0.356 | N -0.626 | C -0.17 | P -0.647 | Q -0.139
C64: M -0.059 | Y -0.537 | E -0.831 | H -0.577 | S -0.475 | R -0.908 | G -0.669 | D -0.893 | T -0.758 | L -0.513 | I -0.928 | A -0.203 | W -0.675 | K -0.866 | F -0.903 | Q -0.8 | V -0.823
C56: G -0.786 | H -0.6 | T -1.13 | P -1 | E -0.87 | N -0.373 | F -0.506 | I -0.627 | M -0.636 | Y -0.612 | K -0.926 | A -0.552 | D -0.815 | S -0.723 | Q -0.82 | V -0.758 | R -0.886
Q50: D 0.03 | K 0.097 | G -0.149 | F -0.299 | T -0.076 | I 0.117 | E 0.05 | Y -0.066 | N 0.012 | A 0.063 | R -0.119 | M -0.088 | W -0.06 | C -0.078 | V -0.086 | S -0.086
Q57: Y 0.296 | E 0.183 | R -0.231 | K -0.341 | A -0.035 | V -0.567 | G 0.07 | N 0.163 | S -0.059 | T -0.088 | C -0.093 | W 0.156 | M -0.121 | H 0.054 | D 0.046 | F -0.036 | L -0.221 | P -0.042
N54: D -0.071 | I 0.092 | L -0.029 | R -0.353 | P 0.006 | V -0.025 | T -0.059 | C -0.314 | Y -0.104 | M 0.015 | S -0.033 | K -0.089 | Q -0.091 | H -0.116 | F -0.222 | G -0.153 | E 0.075 | W -0.194
Q55: L -0.059 | R -0.074 | M -0.126 | H 0.017 | G -0.017 | W 0.095 | N -0.083 | E 0.19 | V -0.003 | K -0.021 | C 0.008 | F 0.069 | Y -0.039 | D 0.123 | A -0.02 | P -0.109 | I 0.006 | T -0.101
R53: H -0.231 | E 0.018 | W -0.288 | A 0.022 | L -0.081 | D 0.055 | V -0.069 | T 0.017 | C -0.001 | S -0.178 | I -0.169 | F -0.495 | M -0.099 | Y 0.224 | N -0.044 | K -0.218 | P 0.111 | Q 0.12
L61: P -0.65 | G -0.73 | S -0.691 | M 0.073 | E -0.38 | K -0.78 | W -0.05 | I -0.163 | C -0.649 | R -0.84 | V -0.555 | T -0.771 | F -0.062 | Q -0.346 | D -0.799 | A -0.72 | N -0.702 | Y -0.152 | H -0.668
L65: C -0.265 | H 0.102 | K -0.342 | D 0.015 | F -0.039 | A -0.228 | Q 0.029 | R -0.497 | M -0.069 | Y -0.069 | V -0.019 | G -0.392 | N -0.322 | E 0.06 | T -0.133 | S -0.472
D49: W -0.13 | P -0.323 | C -0.726 | K -0.343 | S -0.044 | I -0.199 | Y -0.261 | R -0.313 | F 0.017 | N -0.003 | Q -0.083 | L -0.122 | M -0.175 | E -0.064 | H -0.269 | T -0.152 | G -0.108 | V -0.141
H52: C -0.092 | P 0.09 | Q 0.095 | E 0.08 | K -0.035 | S -0.102 | W -0.263 | A 0.041 | N -0.1 | I 0.07 | M -0.019 | G 0.035 | F -0.068 | D -0.092 | Y -0.225 | V 0.023 | R -0.154
H51: T -0.091 | R -0.16 | Y -0.09 | C -0.118 | A 0.039 | Q 0.081 | E -0.041 | L 0.059 | I -0.244 | N 0.102 | G 0.034 | W 0.012 | K 0.059 | M 0.025 | V -0.051 | D -0.022 | P -0.138
K62: N 0.146 | Y -0.512 | V 0.086 | C -0.257 | A 0.044 | G -0.143 | M -0.003 | S 0.011 | Q -0.001 | H -0.198 | I 0.189 | R -0.073 | D 0.053 | L -0.015 | W -0.162 | P -0.573
R60: T -0.007 | M 0.283 | S -0.56 | L 0.205 | D -0.535 | A -0.088 | P -0.602 | C -0.007 | V -0.157 | F 0.132 | Q 0.197 | I -0.227 | W 0.139 | E -0.503 | N -0.416
V67: C -0.088 | D -0.398 | A -0.099 | L -0.118 | K -0.127 | I -0.093 | M 0.099 | H -0.157 | N -0.125 | F -0.115 | G -0.26 | E 0.013
Y58: M -0.312 | L -0.378 | T -0.774 | I -0.866 | D -0.046 | W -0.03 | N -0.548 | H 0.051 | Q -0.231 | V -0.787 | E 0.027 | F 0.072 | R -0.458 | A 0.017 | G -0.18 | K -0.366 | P -0.587
K66: L -0.032 | I -0.079 | A 0.003 | T 0.025 | V 0.041 | S 0.074 | G -0.09 | F -0.013 | Q 0.055 | M 0.055 | P -0.785 | N 0.058 | Y -0.033 | R -0.021 | C -0.229 | H -0.103 | E 0.02
C59: Y -0.789 | D -0.729 | K -0.871 | M -0.809 | E -0.696 | A -0.668 | P -0.541 | W -1.02 | F -0.978 | I -1 | L -0.934 | G -0.789 | V -0.729 | R -0.848 | Q -0.801 | S -0.853
I48: Q -0.125 | H -0.93 | R -0.461 | L -0.147 | W -0.283 | K -0.661 | M -0.13 | N -0.151 | S -0.286 | Y -0.518 | G -0.466 | P -0.788 | T -0.094
